The target of experiment [1] is FcγRIIIa receptor, F158 (low affinity) variant (UniProt P08637).
For experiment [2], the target named is FcγRIIIa receptor, V158 (high affinity) variant.

Data on two substances can be found in article PMC5855643.

On to “Rituxan^® (rituximab, innovator product) (antibody)”, for which, in experiment [1], the EC50 of the ADCC reporter bioassay, Daudi target cells, F/F 158 variant effector cells came out at 22 ng/mL and the EC50 of the ADCC reporter bioassay, Wil2-S target cells, F/F 158 variant effector cells stood at 18 ng/mL. In experiment [2], the EC50 of the ADCC reporter bioassay, Daudi target cells, V/V 158 variant effector cells was found to be 12 ng/mL and the EC50 of the ADCC reporter bioassay, Wil2-S target cells, V/V 158 variant effector cells turned out to be 15.7 ng/mL.
In experiment [1], “reglycosylated plant-made rituximab (NbRTX^A2G2) (antibody)” displayed an EC50 of the ADCC reporter bioassay, Daudi target cells, F/F 158 variant effector cells of 7 ng/mL and an EC50 of the ADCC reporter bioassay, Wil2-S target cells, F/F 158 variant effector cells of 4.4 ng/mL. In experiment [2], this substance registered an EC50 of the ADCC reporter bioassay, Daudi target cells, V/V 158 variant effector cells of 2.9 ng/mL and an EC50 of the ADCC reporter bioassay, Wil2-S target cells, V/V 158 variant effector cells of 2.7 ng/mL.
